According to article PMC7717906 (eLife, 2020):

Target: the molecule itself
Experiment: native gel or EMSA

B1: MoOsm1-GFP (enzyme)
chain: MAEFVRAQIFGTTFEITSRYSDLQPVGMGAFGLVCSARDQLTNQNVAIKKIMKPFSTPVLAKRTYRELKLLKHLKHENVISLSDIFISPLEDIYFVTELLGTDLHRLLTSRPLEKQFIQYFLYQIMRGLKYVHSAGVVHRDLKPSNILVNENCDLKICDFGLARIQDPQMTGYVSTRYYRAPEIMLTWQKYDVEVDIWSAGCIFAEMLEGKPLFPGKDHVNQFSIITELLGTPPDDVINTIASENTLRFVKSLPKRERQPLKNKFKNADPSAIDLLERMLVFDPKKRITATEALAHEYLTPYHDPTDEPIAEEKFDWSFNDADLPVDTWKIMMYSEILDYHNAEAGMQQMDDQFTGQ
stoichiometry N: 2
